Data: patent US20060160117

T1: MTase(R124) (UniProt P10484)
T1 sequence 1: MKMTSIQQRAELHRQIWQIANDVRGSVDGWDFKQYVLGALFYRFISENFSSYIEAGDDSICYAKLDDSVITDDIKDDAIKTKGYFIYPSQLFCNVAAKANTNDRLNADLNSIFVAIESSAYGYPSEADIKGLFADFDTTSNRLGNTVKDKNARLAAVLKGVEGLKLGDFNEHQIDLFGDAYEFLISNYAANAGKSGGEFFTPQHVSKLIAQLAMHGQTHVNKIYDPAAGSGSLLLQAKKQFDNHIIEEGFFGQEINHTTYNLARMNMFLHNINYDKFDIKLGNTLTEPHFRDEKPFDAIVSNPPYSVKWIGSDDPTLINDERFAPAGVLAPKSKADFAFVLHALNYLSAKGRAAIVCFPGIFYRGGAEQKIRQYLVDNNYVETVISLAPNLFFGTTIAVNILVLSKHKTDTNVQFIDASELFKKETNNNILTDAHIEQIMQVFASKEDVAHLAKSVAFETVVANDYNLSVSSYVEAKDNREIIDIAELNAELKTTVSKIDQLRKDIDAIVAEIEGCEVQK
T1 sequence 2: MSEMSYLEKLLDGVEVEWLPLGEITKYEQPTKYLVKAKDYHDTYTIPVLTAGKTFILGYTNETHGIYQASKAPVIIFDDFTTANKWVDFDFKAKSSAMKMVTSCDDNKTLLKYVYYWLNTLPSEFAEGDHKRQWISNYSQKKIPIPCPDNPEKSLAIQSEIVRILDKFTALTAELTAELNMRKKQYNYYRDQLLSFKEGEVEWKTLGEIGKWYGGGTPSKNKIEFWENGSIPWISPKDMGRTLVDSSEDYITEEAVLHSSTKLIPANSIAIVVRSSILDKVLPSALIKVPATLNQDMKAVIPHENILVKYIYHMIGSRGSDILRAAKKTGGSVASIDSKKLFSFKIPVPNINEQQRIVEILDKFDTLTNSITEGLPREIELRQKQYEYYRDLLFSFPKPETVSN

T2: MTase(R124), P10484
T2 chain 1: T1 sequence 1
T2 chain 2: T1 sequence 2

B1: HsdR(R124) (protein)
chain: MTHQTHTIAESNNFIVLDKYIKAEPTGDSYQSESDLERELIQDLRNQGYEFISVKSQSAMLANVREQLQNLNGVVFNDSEWRRFTEQYLDNPSDGILDKTRKIHIDYICDFIFDDERLENIYLIDKKNLMRNKVQIIQQFEQAGSHANRYDVTILVNGLPLVQIELKKRGVAIREAFNQIHRYSKESFNSENSLFKYLQLFVISNGTDTRYFANTTKRDKNSFDFTMNWAKSDNTLIKDLKDFTATCFQKHTLLNVLVNYSVFDSSQTLLVMRPYQIAATERILWKIKSSFTAKNWSKPESGGYIWHTTGSGKTLTSFKAARLATELDFIDKVFFVVDRKDLDYQTMKEYQRFSPDSVNGSENTAGLKRNLDKDDNKIIVTTIQKLNNLMKAESDLPVYNQQVVFIFDECHRSQFGEAQKNLKKKFKRYYQFGFTGTPIFPENALGSETTASVFGRELHSYVITDAIRDEKVLKFKVDYNDVRPQFKSLETETDEKKLSAAENQQAFLHPMRIQEITQYILNNFRQKTHRTFPGSKGFNAMLAVSSVDAAKAYYATFKRLQEEAANKSATYKPLRIATIFSFAANEEQNAIGEISDETFDTSAMDSSAKEFLDAAIREYNSHFKTNFSTDSNGFQNYYRDLAQRVKNQDIDLLIVVGMFLTGFDAPTLNTLFVDKNLRYHGLMQAFSRTNRIYDATKTFGNIVTFRDLERSTIDAITLFGDKNTKNVVLEKSYTEYMEGFTDAATGEAKRGFMTVVSELEQRFPDPTSIESEKEKKDFVKLFGEYLRAENILQNYDEFATLKALQQIDLSDPVAVEKFKAEHYVDDEKFAELQTIRLPADRKIQDYRSAYNDIRDWQRREKEAEKKEKSTTDWDDVVFEVDLLKSQEINLDYILGLIFEHNRQNKGKGEMIEEVKRLIRSSLGNRAKEGLVVDFIQQTNLDDLPDKASIIDAFFTFAQREQQREAEALIKEENLNEDAAKRYIRTSLKREYATENGTELNETLPKLSPLNPQYKTKKQAVFQKIVSFIEKFKGVGGKI

What was measured:
MTase(R124) = target: T1, MTase(R124)
MTase(R124), P10484 = target: T2, MTase(R124), P10484

| Molecule | DNA cleavage by the hybrid endonuclease (MTase(R124)) | cleavage of pCFD30 plasmid DNA (agarose gel) (MTase(R124), P10484) |
| --- | --- | --- |
| HsdR(prrI) | this hybrid enzyme can only cleave DNA in the presence of extremely high concentrations of HsdR(prrI) |  |
| B1 |  | The R2-complex was found to cleave the plasmid DNA, as expected. No cleavage was observed for the R1-complex |
